Measurements published in US20240132578A1.

What was measured:
[1] = biological target: HIV-1 envelope glycoprotein (Env) of isolate MGRM-Chronic-B-010, on pseudovirus (HIV-1); test: cell-based or functional assay
HIV-1 JRFL Env (HIV-1) = test: cell-based or functional assay
[2] = biological target: HIV-1 JR-CSF Env I309A (HIV-1 (isolate JR-CSF, clade B)) (UniProt P20871); test: cell-based or functional assay
[3] = biological target: HIV-1 envelope glycoprotein (Env) of isolate MG RM-A-002, subtype A (HIV-1); test: cell-based or functional assay
[4] = biological target: HIV-1 93UG077 Env (HIV-1); test: cell-based or functional assay
[5] = biological target: HIV-1 envelope glycoprotein (Env) of isolate 92WR026, subtype A (HIV-1); test: cell-based or functional assay
[6] = biological target: HIV-1 JR-CSF Env T388A (HIV-1 isolate JR-CSF) (UniProt P20871); test: cell-based or functional assay
HIV-1 APV17 Env (HIV-1) = test: cell-based or functional assay
[7] = biological target: HIV-1 JR-CSF Env N332A (HIV-1 isolate JR-CSF) (UniProt P20871); test: cell-based or functional assay
[8] = biological target: HIV-1 JR-CSF Env F317A (HIV-1 (isolate JR-CSF, clade B)) (UniProt P20871); test: cell-based or functional assay
[9] = biological target: HIV-1 JR-CSF Env Q337A (HIV-1 isolate JR-CSF) (UniProt P20871); test: cell-based or functional assay
[10] = biological target: HIV-1 JR-CSF Env N355A (HIV-1 isolate JR-CSF) (UniProt P20871); test: cell-based or functional assay
[11] = biological target: HIV-1 JR-CSF Env T320A (HIV-1 (isolate JR-CSF, clade B)) (UniProt P20871); test: cell-based or functional assay
[12] = biological target: HIV-1 JR-CSF Env N295A (HIV-1 (isolate JR-CSF, clade B)) (UniProt P20871); test: cell-based or functional assay
[13] = biological target: HIV-1 JR-CSF Env I323A (HIV-1 (isolate JR-CSF, clade B)) (UniProt P20871); test: cell-based or functional assay
[14] = biological target: HIV-1 JR-CSF Env T202A (HIV-1 (isolate JR-CSF)) (UniProt P20871); test: cell-based or functional assay
[15] = biological target: HIV-1 MGRM-C-027 envelope glycoprotein (Env) on pseudovirus (HIV-1); test: cell-based or functional assay
[16] = biological target: HIV-1 MGRM-C-026 envelope glycoprotein (Env) on pseudovirus (HIV-1); test: cell-based or functional assay
[17] = biological target: HIV-1 92TH021 envelope glycoprotein (Env) on pseudovirus (HIV-1); test: cell-based or functional assay
[18] = biological target: HIV-1 94UG103 envelope glycoprotein (Env) on pseudovirus (HIV-1); test: cell-based or functional assay
[19] = biological target: HIV-1 JRCSF envelope glycoprotein (Env) on pseudovirus (HIV-1) (UniProt P20871); test: cell-based or functional assay
[20] = biological target: HIV-1 JRFL envelope glycoprotein (Env) on pseudovirus (HIV-1); test: cell-based or functional assay
[21] = biological target: HIV-1 MGRM-D-018 envelope glycoprotein (Env) on pseudovirus (HIV-1); test: cell-based or functional assay
[22] = biological target: HIV-1 CMU02 envelope glycoprotein (Env) on pseudovirus (HIV-1); test: cell-based or functional assay
[23] = biological target: HIV-1 93IN905 envelope glycoprotein (Env) on pseudovirus (HIV-1); test: cell-based or functional assay
[24] = biological target: HIV-1 93UG077 envelope glycoprotein (Env) on pseudovirus (HIV-1); test: cell-based or functional assay
[25] = biological target: HIV-1 92UG005 envelope glycoprotein (Env) on pseudovirus (HIV-1); test: cell-based or functional assay
[26] = biological target: HIV-1 MGRM-AG-005 envelope glycoprotein (Env) on pseudovirus (HIV-1); test: cell-based or functional assay
[27] = biological target: JR-FL GP120 ΔV3 (HIV-1 JR-FL); test: ELISA, antigen-coated wells, mAb titrated; EC50 by nonlinear regression

4858_P08 (PGT-123) (antibody)
IC50, pseudovirus neutralization [1]: 0.009 µg/mL | IC50, pseudovirus neutralization (HIV-1 JRFL Env (HIV-1)): 0.0283 µg/mL | Fold IC50 increase relative to wild-type [2]: 1.6 fold | IC50, pseudovirus neutralization [3]: 0.011 µg/mL | IC50, pseudovirus neutralization [4]: 0.0303 µg/mL | IC50, pseudovirus neutralization [5]: 0.012 µg/mL | Fold IC50 increase relative to wild-type [6]: 0.2 fold | IC50, pseudovirus neutralization (HIV-1 APV17 Env (HIV-1)): 0.18 µg/mL | Fold IC50 increase relative to wild-type [7]: > 200 fold | Fold IC50 increase relative to wild-type [8]: 3.1 fold

5136_H01 (PGT-131) (antibody)
Fold IC50 increase relative to wild-type [9]: 1.3 fold | Fold IC50 increase relative to wild-type [2]: 8.8 fold | Fold IC50 increase relative to wild-type [10]: 2.3 fold | Fold IC50 increase relative to wild-type [11]: 4.5 fold | Fold IC50 increase relative to wild-type [12]: 2.1 fold | Fold IC50 increase relative to wild-type [13]: 38 fold | Fold IC50 increase relative to wild-type [14]: 2.7 fold | Fold IC50 increase relative to wild-type [8]: 96 fold

5145_B14 (PGT-127) (antibody)
IC50, pseudovirus neutralization [1]: 0.019 µg/mL | Fold IC50 increase relative to wild-type [9]: 0.5 fold | Fold IC50 increase relative to wild-type [2]: 6 fold | IC50, pseudovirus neutralization [3]: 9.42 µg/mL | Fold IC50 increase relative to wild-type [11]: 1.8 fold | IC50, pseudovirus neutralization [5]: 0.024 µg/mL | Fold IC50 increase relative to wild-type [6]: 0.5 fold | Fold IC50 increase relative to wild-type [12]: 2.3 fold | Fold IC50 increase relative to wild-type [7]: > 100 fold | Fold IC50 increase relative to wild-type [13]: 4 fold | Fold IC50 increase relative to wild-type [14]: 1.8 fold

5343_B08 (PGT-135) (antibody)
Neutralization IC80 [15]: > 10 µg/mL | Neutralization IC90 [15]: > 10 µg/mL | Neutralization IC95 [15]: > 10 µg/mL | neutralization IC50 [15]: > 10 µg/mL | Neutralization IC80 [16]: 0.0562 µg/mL | Neutralization IC90 [16]: 0.139 µg/mL | Neutralization IC95 [16]: 0.331 µg/mL | neutralization IC50 [16]: 0.0123 µg/mL | Fold IC50 increase relative to wild-type [9]: 2.1 fold | Neutralization IC80 [17]: > 10 µg/mL | Neutralization IC90 [17]: > 10 µg/mL | Neutralization IC95 [17]: > 10 µg/mL | neutralization IC50 [17]: > 10 µg/mL | Neutralization IC80 [18]: > 10 µg/mL | Neutralization IC90 [18]: > 10 µg/mL | Neutralization IC95 [18]: > 10 µg/mL | neutralization IC50 [18]: > 10 µg/mL | Neutralization IC80 [19]: 0.503 µg/mL | Neutralization IC90 [19]: 1.47 µg/mL | Neutralization IC95 [19]: 8.3 µg/mL | neutralization IC50 [19]: 0.113 µg/mL | Neutralization IC80 [20]: > 10 µg/mL | Neutralization IC90 [20]: > 10 µg/mL | Neutralization IC95 [20]: > 10 µg/mL | neutralization IC50 [20]: > 10 µg/mL | Fold IC50 increase relative to wild-type [6]: 0.1 fold | Fold IC50 increase relative to wild-type [12]: > 18 fold | Neutralization IC80 [21]: 0.2 µg/mL | Neutralization IC90 [21]: > 10 µg/mL | Neutralization IC95 [21]: > 10 µg/mL | neutralization IC50 [21]: 0.0433 µg/mL | Neutralization IC80 [22]: > 10 µg/mL | Neutralization IC90 [22]: > 10 µg/mL | Neutralization IC95 [22]: > 10 µg/mL | neutralization IC50 [22]: > 10 µg/mL | Fold IC50 increase relative to wild-type [7]: > 250 fold | Neutralization IC80 [23]: 0.0648 µg/mL | Neutralization IC90 [23]: 0.136 µg/mL | Neutralization IC95 [23]: 0.268 µg/mL | neutralization IC50 [23]: 0.0183 µg/mL | Neutralization IC80 [24]: > 10 µg/mL | Neutralization IC90 [24]: > 10 µg/mL | Neutralization IC95 [24]: > 10 µg/mL | neutralization IC50 [24]: > 10 µg/mL | Neutralization IC80 [25]: > 10 µg/mL | Neutralization IC90 [25]: > 10 µg/mL | Neutralization IC95 [25]: > 10 µg/mL | neutralization IC50 [25]: > 10 µg/mL | Fold IC50 increase relative to wild-type [14]: 1.8 fold | Neutralization IC80 [26]: > 10 µg/mL | Neutralization IC90 [26]: > 10 µg/mL | Neutralization IC95 [26]: > 10 µg/mL | neutralization IC50 [26]: > 10 µg/mL | EC50 [27]: 0.2 µg/mL
